According to article PMC11480844 (2024):

B1: H2-Kb / Ed40 (parent complex)
chain 1: GDSVTQTEGPVTVSESESLIINCTYSATSIAYPNLFWYVRYPGEGLQLLLKVITAGQKGSSRGFEATYNKETTSFHLQKASVQESDSAVYYCALGDGYTGNYKYVFGAGTRLKVIA
chain 2: DSGVVQSPRHIIKEKGGRSVLTCIPISGHSNVVWYQQTLGKELKFLIQHYEKVERDKGFLPSRFSVQQFDDYHSEMNMSALELEDSAMYFCASSGASAETLYFGSGTRLTVL
chain 3: not shown
chain 4: IQKTPQIQVYSRHPPENGKPNILNCYVTQFHPPHIEIQMLKNGKKIPKVEMSDMSFSKDWSFYILAHTEFTPTETDTYACRVKHDSMAEPKTVYWDRDM
chain 5: SIINFEKL
B2: H2-Kb / Ed16-30 (parent complex)
chain 1: GEQVEQRPPHLSVREGDSAVIICTYTDPNSYYFFWYKQEPGAGLQLLMKVFSSTEINEGQGFTVLLNKKDKQLSLNLTAAHPGDSAVYFCAVSEPSSGQKLVFGQGTILKVYL
chain 2: EAAVTQSPRNKVAVTGGKVTLSCNQTNNHNNMYWYRQDTGHGLRLIHYSYGAGSTEKGDIPDGYKASRPSQENFSLILELATPSQTSVYFCAGRDTGQLYFGEGSKLTVL
chain 3: not shown
chain 4: B1 chain 4
chain 5: SIINFEKL

Variants of: B1
Test: % of reporter cells activated (NFAT-GFP), raw
Also: test concentration or dose not given here.

Point of comparison: chain 5 I3V, ratio to parent 0.69. Against it:
- chain 5 N4Y — lower, 0.0157
- chain 5 I3C — lower, 0.523
- chain 5 E6H — lower, 0.172
- chain 5 K7T — lower, 0.224
- chain 5 I2S — higher, 1.1
- chain 5 S1G — higher, 1
- chain 5 F5E — lower, 0.52
- chain 5 I2G — higher, 0.922
- chain 5 I3G — lower, 0.319
- chain 5 S1W — lower, 0.335
- chain 5 K7R — lower, 0.622
- chain 5 S1Q — lower, 0.681
- chain 5 K7L — lower, 0.192
- chain 5 I3T — lower, 0.423
- chain 5 L8T — higher, 0.885
- chain 5 S1K — lower, 0.399
- chain 5 S1D — higher, 0.892
- chain 5 E6G — lower, 0.464
- chain 5 I3Y — higher, 0.762
- chain 5 L8G — lower, 0.595
- chain 5 N4T — lower, 0.00333

Variants of: B2
Test: % of reporter cells activated (NFAT-GFP), raw

Point of comparison: chain 5 I3N, ratio to parent 0.507. Against it:
- chain 5 I3P — higher, 0.64
- chain 5 F5E — higher, 0.752
- chain 5 S1Y — higher, 0.55
- chain 5 I2E — higher, 1.21
- chain 5 S1L — lower, 0.313
- chain 5 I2P — higher, 1.06
- chain 5 S1M — higher, 0.632
- chain 5 L8K — higher, 1
- chain 5 E6S — higher, 0.609
- chain 5 I2N — higher, 0.951
- chain 5 L8H — higher, 1.06
- chain 5 L8G — higher, 0.904
- chain 5 F5C — higher, 1.23
- chain 5 N4T — lower, 0.0259
- chain 5 N4C — lower, 0.0363
- chain 5 I2S — higher, 1.19
- chain 5 L8Q — higher, 1.13
- chain 5 I2Y — higher, 0.774
- chain 5 K7W — higher, 0.74
- chain 5 I2A — higher, 1.2
- chain 5 E6A — higher, 0.508
- chain 5 I3H — higher, 0.558
- chain 5 I3V — higher, 1.11
- chain 5 E6I — lower, 0.00701
- chain 5 L8S — higher, 1.04
- chain 5 S1E — lower, 0.0535
- chain 5 N4R — lower, 0.318
- chain 5 S1C — lower, 0.186
- chain 5 E6L — lower, 0.387
- chain 5 K7T — higher, 0.716
- chain 5 K7G — lower, 0.381
- chain 5 L8A — higher, 1.04
- chain 5 N4K — lower, 0.0853
- chain 5 N4S — lower, 0.0223
- chain 5 S1A — higher, 0.631
- chain 5 N4A — lower, 0.0158
- chain 5 S1P — lower, 0.0976
- chain 5 I2K — higher, 0.978
- chain 5 E6M — lower, 0.399
- chain 5 L8M — higher, 1.08
- chain 5 S1Q — lower, 0.323
- chain 5 N4H — lower, 0.165
- chain 5 L8N — higher, 0.798
- chain 5 S1F — lower, 0.025
- chain 5 I3K — higher, 0.779
- chain 5 I3M — lower, 0.425
- chain 5 K7E — lower, 0.0275
- chain 5 N4M — lower, 0.0762
- chain 5 K7I — higher, 0.61
- chain 5 K7V — higher, 0.687
- chain 5 K7D — lower, 0.162
- chain 5 F5L — higher, 1.21
- chain 5 I3Y — higher, 0.607
- chain 5 I3G — lower, 0.137
- chain 5 N4G — lower, 0.0285
- chain 5 F5M — higher, 1.28
- chain 5 L8Y — higher, 1.13
- chain 5 K7Y — lower, 0.265
- chain 5 I3D — higher, 0.562
- chain 5 E6R — lower, 0.363
- chain 5 F5H — higher, 1.21
- chain 5 S1D — lower, 0.337
- chain 5 L8P — higher, 0.836
- chain 5 K7P — higher, 0.796
- chain 5 K7A — lower, 0.499
- chain 5 F5G — higher, 0.976
- chain 5 I3F — higher, 0.69
- chain 5 S1R — lower, 0.184
- chain 5 I2Q — higher, 0.726
- chain 5 N4Q — lower, 0.0901
- chain 5 N4I — lower, 0.0453
- chain 5 I3S — lower, 0.393
- chain 5 N4W — lower, 0.0129
- chain 5 I2L — higher, 1.33
- chain 5 L8R — higher, 1.04
- chain 5 S1T — lower, 0.386
- chain 5 I2D — higher, 1.31
- chain 5 S1V — lower, 0.362
- chain 5 I3R — lower, 0.104
- chain 5 L8C — higher, 0.731
- chain 5 N4V — lower, 0.0105
- chain 5 F5P — higher, 0.769
- chain 5 E6D — higher, 1.28
- chain 5 E6Y — lower, 0.308
- chain 5 F5K — higher, 1.04
- chain 5 E6C — lower, 0.197
- chain 5 E6H — lower, 0.488
- chain 5 S1K — lower, 0.144
- chain 5 S1W — lower, 0.128
- chain 5 I2M — higher, 1.31
- chain 5 L8F — higher, 1.12
- chain 5 E6Q — higher, 0.745
- chain 5 L8T — higher, 1.09
- chain 5 I3Q — lower, 0.322
- chain 5 I3T — higher, 0.613
- chain 5 I2G — higher, 1.25
- chain 5 S1N — higher, 0.522
- chain 5 N4L — the same, 0.507
- chain 5 K7H — lower, 0.478
- chain 5 F5R — higher, 1.19
- chain 5 N4D — higher, 0.9
- chain 5 K7S — higher, 0.842
- chain 5 K7L — lower, 0.401
- chain 5 F5Q — higher, 1.25
- chain 5 L8I — higher, 1.19
- chain 5 N4E — lower, 0.00872
- chain 5 I3A — lower, 0.413
- chain 5 I2H — higher, 0.72
- chain 5 F5V — higher, 1.25
- chain 5 S1H — lower, 0.259
- chain 5 E6P — higher, 0.508
- chain 5 I3W — higher, 0.537
- chain 5 I2V — higher, 1.33
- chain 5 N4F — lower, 0.00803
- chain 5 E6T — higher, 0.545
- chain 5 E6G — higher, 0.543
- chain 5 F5N — higher, 0.969
- chain 5 I3C — higher, 0.642
- chain 5 F5I — higher, 1.11
- chain 5 S1G — lower, 0.485
- chain 5 E6K — lower, 0.503
- chain 5 I2T — higher, 1.18
- chain 5 F5Y — higher, 1.14
- chain 5 K7C — higher, 0.563
- chain 5 E6N — higher, 0.588
- chain 5 N4P — lower, 0.121
- chain 5 E6F — lower, 0.35
